# Assays:
# [1] = biological target: T1, CLDN18.1 (CLDN18.1-Flag 293t cells) (Homo sapiens, UniProt P56856); assay: Binding specificity, 293t cells expressing CLDN18.1-Flag, flow cytometry; details: 10 μg/ml antibody, 4° C. 1 hour
# T1 construct: expressed in transfected cells; host or cells: 293t cells, transient transfection
# Text: (§1) Human Claudin18 proteins include two homologues, i.e., CLDN18.1 and CLDN18.2, which share exons other than exon 1, and the exon 1 sequences of CLDN18.1 and CLDN18.2 are highly similar with only 8 different amino acids in the first extracellular region. The exon 1 of CLDN18.1 and the exon 1 of CLDN18.2 are specifically expressed in different tissues driven by different promoters. Among them, CLDN18.1 is specifically expressed in lung epithelial cells, while CLDN18.2 is specifically expressed in gastric epithelial cells. To identify the specificity of the screened CLDN18.2 antibodies, binding of the antibodies to CLDN18.1 and CLDN18.2 was tested.
# (§2) Specifically, well-grown 293t cells were taken to transiently express flag-tagged CLDN18.1 (CLDN18.1-Flag) or CLDN18.2 (CLDN18.2-Flag). 48 hours after transfection, the cells were digested with trypsin. After washed with flow cytometry buffer, the cells were mixed with 10 μg/ml of isotype control antibody or one of the above five CLDN18.2 antibodies in 200 μl of flow cytometry buffer, and were incubated at 4° C. for 1 hour. Subsequently, the cells were washed once with flow cytometry buffer, PE-labeled anti-human IgG antibody was added, and incubated at 4° C. for 30 min. The supernatant was removed by centrifugation, wash was performed twice with flow cytometry buffer, and the cells were fixed in a fix solution containing 1% paraformaldehyde and 0.5% triton-X100 and the cell membrane was permeabilized. Subsequently, the cells were incubated with APC-labeled anti-flag antibody for 30 min and tested by flow cytometry.
# [2] = system: SNU601 cells expressing CLDN18.2; assay: Endocytosis of antibody after binding to SNU601 cells stably expressing CLDN18.2; assay type: cell-based; details: 10 μg/ml, 4 h
# Procedure: It has been reported that the binding of some antibodies to cell surface antigens can cause endocytosis of antigen and antibody complexes, thereby reducing the expression level of the cell surface antigens and accelerating antibody metabolism in vivo (Schrama D et al., 2006, Nat Rev Drug Discov). In this example, the ability of antibodies 18.2-A1, 18.2-A3, 18.2-A4 and 18.2-A6 to be endocytosed by cells was tested in SNU601 cells stably expressing CLDN18.2. […] Subsequently, they were washed at 4° C. and stained with PE-labeled anti-human IgG antibody. After fixation with 4% formalin, antibody binding on the cell surface was tested by flow cytometry.
# [3] = system: FcγRIIIa; assay: Biacore binding to FcγRIIIa; details: FcγRIIIa captured as ligand, antibody as analyte
# Procedure: Subsequently, the binding activity of the CLDN18.2 antibody and its defucosylated form to FcγRIIIa was tested using the Biacore method. Specifically, FcγRIIIa (Sino Biological Inc, 10389-H08C1) was diluted to 0.1 μg/ml in HBS-EP buffer as a ligand, and 18.2-A1F and 18.2-A1 antibody samples were diluted to 360 μg/ml, 120 μg/ml, 40 μg/ml, 13.3 μg/ml and 4.4 μg/ml respectively as analytes. The ligand FcγRIIIa was immobilized using an indirect capture method. First, 50 μg/ml of Anti-His IgG was covalently bound to the surface of CMS chip through amino coupling, followed by the binding of the ligand and analyte. Affinity analysis experiments were performed in Biacore Wizard mode using a multi-cycle approach with FcγRIIIa as the ligand and 18.2-A1F and 18.2-A1 antibody samples as analytes.
# The test for each sample includes three Start up, one zero concentration control, five gradient concentration samples and one replicate sample (reference). The chip was regenerated with 10 mM glycine-HCl, pH 1.5 regeneration solution after each cycle. Each concentration cycle of the analyte was set with a capture time of 60 s and a flow rate of the ligand solution of 10 μl/min; a binding time of ligand and analyte of 180 s, and a flow rate of the analyte solution of 30 μl/min; and a dissociation time of 180 s. The CMS chip coupled with Anti-His IgG was placed in the slot for detection and analysis. […]
# [4] = system: untransfected Jurkat cells; assay: Flow cytometry binding to untransfected Jurkat cells; details: results not shown
# [5] = system: control CT26 cell line; assay: Flow cytometry binding to control CT26 cell line; details: results not shown
# [6] = biological target: T2, CLDN18.2 (CT26-CLDN18.2 cells) (Homo sapiens, UniProt P56856); assay: Flow cytometry binding of recombinant antibodies to CT26-CLDN18.2 cells; details: 4° C. 1 hour
# T2 construct: expressed in transfected cells; host or cells: CT26 cells (mouse), lentiviral transduction, puromycin selection
# Procedure: Binding activities of the recombinant monoclonal antibodies to CLDN18.2 were determined. Specifically, well-grown cell lines stably expressing CT26-CLDN18.2 were taken. The cells were washed with PBS, mixed with the fold-diluted antibody and incubated at 4° C. for 1 hour. The cells were washed once with flow cytometry buffer, PE-labeled anti-human IgG antibody was added, and incubated at 4° C. for 30 minutes. The supernatant was removed by centrifugation, and after the cells were washed with flow cytometry buffer, the fluorescence intensity on the surface of the cells was tested by flow cytometry. The relative binding activity of each antibody was calculated using the average fluorescence intensity.
# The binding activity of the defucosylated antibodies 18.2-A1F, 18.2-A3F and 18.2-A4F to CLDN18.2 as compared to the binding activity of 18.2-A1, 18.2-A3 and 18.2-A4 to CLDN18.2 was tested by flow cytometry, the method of which is as described in Example 5, and the experimental results are shown in FIG. 7.
# [7] = biological target: T3, CLDN18.2 (CLDN18.2-Flag 293t cells) (Homo sapiens, UniProt P56856); assay: Binding specificity, 293t cells expressing CLDN18.2-Flag, flow cytometry; details: 10 μg/ml antibody, 4° C. 1 hour
# T3 construct: expressed in transfected cells; host or cells: 293t cells, transient transfection
# Text: as §1, §2
# [8] = system: human FcγRIIIa (V158) on FcγRIIIa-Jurkat cells; assay: Flow cytometry binding to FcγRIIIa-Jurkat cells
# Text: We next further tested the binding activity of the CLDN18.2 antibodies and their defucosylated forms to FcγRIIIa expressed on the cell surface. Specifically, the human FcγRIIIa (V158, high FC binding subtype) gene was cloned into a mammalian cell expression vector carrying a puromycin screening marker and transfected into a Jurkat cell line. A cell line stably expressing FcγRIIIa (FcγRIIIa-Jurkat) was screened with puromycin. In addition, NK92MI is a human NK cell line that naturally expresses the FcγRIIIa receptor (F158, low FC binding subtype). The binding ability of the CLDN18.2 antibodies and their defucosylated forms to FcγRIIIa expressed on the surface of FcγRIIIa-jurkat cells and NK92MI cells was tested by flow cytometry. The specific flow cytometry assay is described with reference to Example 6.
molecule,measurement,setting,value
"18.2-A1: recombinant monoclonal CLDN18.2 antibody, VH SEQ ID NO: 1, VL SEQ ID NO: 6 (antibody, V domains shown, 18.2-A1 VH; 18.2-A1 VL) VH: EVQLVQSGAEVKKPGASVKVSCKASGYTFTSSWLIWVRQAPGQGLEWIGTIVPSDSYTNYNQKFKDRATLTVDKSTSTAYMELSSLRSEDTAVYYCTRFRTGNSFDYWGQGTLVTVSS VL: DIVMTQSPDSLSVGLGERATINCKSSQSVLNSGNQKNYLTWYQQKPGQPPKLLIYWAVARQSGVPDRFSGSGSGTDFTLTISSLQAEDVAVYYCQNSIAYPFTFGQGTKVEIK",binding to CLDN18.1-positive cells,[1],none of the six antibodies bound
same,binding to SNU601 cells expressing CLDN18.2 under 4° C. incubation,[2]; 4° C.,bound well
same,antibody staining/binding on the cell surface under 37° C. incubation,[2]; 37° C.,still bound well
same,endocytosis by cells under 37° C. incubation,[2]; 37° C.,did not undergo significant endocytosis
same,binding to FcγRIIIa (Biacore),[3],able to bind to FcγRIIIa effectively
same,binding to untransfected Jurkat cells,[4],not able to bind
same,binding to control CT26 cell line,[5],did not bind
same,binding to CT26 cell line expressing CLDN18.2,[6],able to bind well
same,binding to CLDN18.2-flag transfected positive 293t cells,[7],able to bind well
same,binding to FcγRIIIa-jurkat cells,[8],able to bind

# — patent publication US12662531B2, “CLDN18.2 antibody and use thereof” (FUTUREGEN BIOPHARMACEUTICAL (BEIJING) CO., LTD., priority 2019, dated 2026)
